The target in the experiment is Dyed casein.

The values that follow come from US8268585B2.

“55 kD cellobiohydrolase (pI 4.4), CBH1, Chrysosporium lucknowense (enzyme)” returned an activity toward dyed casein, 50° C., arbitrary units/mg (arbitrary units/mg) of 0.

B1: 25 kD endoglucanase (pI 4.1), C1-EG5, Family 45, Chrysosporium lucknowense (enzyme)
chain: QLSGSGQTTRYWDCCKPSCAWPGKGPSSPVQACDKNDNPLNDGGSTRSGCDAGGSAYMCSSQSPWAVSDELSYGWAAVKLAGSSESQWCCACYELTFTSGPVAGKKMIVQATNTGGDLGDNHFDLAIPGGGVGIFNACTDQYGAPPNGWGDRYGGIHSKEECESFPEALKPGCNWRFDWFQNADNPSVTFQEVACPSELTSKSGCSR
B1 displayed an activity toward dyed casein, 50° C., arbitrary units/mg (arbitrary units/mg) of 0.

B2: 43 kD endoglucanase (pI 4.2), C1-EG6, Family 6, Chrysosporium lucknowense (enzyme)
chain: QASAGCASAVTLDASTNVFQQYTLHPNNFYRAEVEAAAEAISDSALAEKARKVADVGTFLWLDTIENIGRLEPALEDVPCENIVGLVIYDLPGRDCAAKASNGELKVGELDRYKTEYIDKIAEILKAHSNTAFALVIEPDSLPNLVTNSDLQTCQQSASGYREGVAYALKQLNLPNVVMYIDAGHGGWLGWDANLKPGAQELASVYKSAGSPSQVRGISTNVAGWNAWDQEPGEFSDASDAQYNKCQNEKIYINTFGAELKSAGMPNHAIIDTGRNGVTGLRDEWGDWCNVNGAGFGVRPTANTGDELADAFVWVKPGGESDGTSDSSAARYDSFCGKPDAFKPSPEAGTWNQAYFEMLLKNANPSF
B2 came in with an activity toward dyed casein, 50° C., arbitrary units/mg (arbitrary units/mg) of 0.
